These results are taken from patent EP0832229B1.

The target in assay [1] is CD40/Fc fusion protein (extracellular domain of human CD40 fused to the Fc domain of human IgG1) (human) (UniProt P25942). Briefly: BIAcore SPR, CD40/Fc captured by goat anti-human IgG1 Fc; experiment 2.
Assay [2] has the same target. Briefly: BIAcore SPR, CD40/Fc captured by goat anti-human IgG1 Fc; experiment 1.
Assay [3] shares this target. Briefly: BIAcore SPR, CD40/Fc captured by goat anti-human IgG1 Fc; K1 (site 1); experiment 1. Background: Surface plasmon resonance follows binding to a sensor surface in real time, without labels.
Assay [4] has the same target. Briefly: BIAcore SPR, CD40/Fc captured by goat anti-human IgG1 Fc; K2 (site 2); experiment 1.
Assay [5] shares this target. The assay can be described thus: BIAcore SPR, CD40/Fc captured by goat anti-human IgG1 Fc; K1 (site 1); experiment 2.
For assay [6] the target is unchanged. Briefly: BIAcore SPR, CD40/Fc captured by goat anti-human IgG1 Fc; K2 (site 2); experiment 2.
For a further assay, the target named is CD40 on B cells (UniProt P25942). The assay can be described thus: cell-based or functional assay.
The target of assay [7] is CD40/Fc fusion protein (extracellular domain of human CD40 fused to the Fc domain of human IgG1) (human) (UniProt P25942). Briefly: biosensor (BIAcore) assay substantially as in Example 3, CD40/Fc captured.
For assay [8] the target is unchanged. The assay can be described thus: BIAcore SPR substantially as in Example 3; K1; average of two preparations.
For assay [9] the target is unchanged. Briefly: BIAcore SPR substantially as in Example 3; K2; average of two preparations.

Where “and” joins values, the source holds several entries; their conditions need not be identical. Identical values can stand only once.

With “monomeric human CD40L (comprising solely the portion of the extracellular domain most homologous to TNF) (from UniProt P27548 112-260) (ligand)”, in assay [1], the Site2 (mol/mol CD40/Fc) (mol/mol CD40/Fc) was 1.2 and 1.27.

In assay [2], “trimeric murine CD40L (oligomerizing zipper, Flag octapeptide, extracellular region of murine CD40L) (from UniProt P27548 47-260) (ligand)” registered a Site 1 (mol/mol CD40/Fc) (mol/mol CD40/Fc) of 0.02 and a Site2 (mol/mol CD40/Fc) (mol/mol CD40/Fc) of 0.44. In [3], this molecule registered a Ka of 6e+10 M⁻¹. Further, the Ka in assay [4] was 1.6e+08 M⁻¹.

Molecule “dimeric human CD40L (CD40L/Fc) (from UniProt P27548 47-260) (Fc fusion)” displayed a Site 1 (mol/mol CD40/Fc) (mol/mol CD40/Fc) in assay [2] of 0.013. Moreover, the Site2 (mol/mol CD40/Fc) (mol/mol CD40/Fc) in assay [2] is 0.049. In addition, the values for the Ka in assay [3] and in assay [4] were 1.6e+11 M⁻¹ and 7e+08 M⁻¹, respectively.

Consider “trimeric human CD40L (CD40L/"leucine zipper"): oligomerizing zipper followed by the extracellular region of human CD40L, amino acids 51-261 (ligand)”, for which the figures for the Site 1 (mol/mol CD40/Fc) (mol/mol CD40/Fc) in assay [2] and in assay [1] were 0.04 and 0.26, respectively. In addition, the figures for the Site2 (mol/mol CD40/Fc) (mol/mol CD40/Fc) in [2] and in assay [1] were 0.68 and 0.41, respectively. Further, the Ka in assay [3] is 5e+09 M⁻¹; in assay [5], 6.6e+08 M⁻¹; in [4], 7.5e+07 M⁻¹; in assay [6], 2.6e+07 M⁻¹.

B1: wild type CD40 ligand/zipper domain fusion protein (WT) expressed in yeast (ligand, part only; not given: leucine zipper sequence, part only)
chain, part: MQRGDEDPQIAAHVVSEANSNAASVLQWAKKGYYTMKSNLVMLENGKQLTVKREGLYYVYTQVTFCSNREPSSQRPFIVGLWLKPSSGSERILLKAANTHSSSQLCEQQSVHLGGVFELQAGASVFVNVTEASQVIHRVGFSSFGLLKL
Regarding B1, in the assay with CD40 on B cells, the B-cell proliferation (U/µg), Experiment 1 was 77 U/µg. The molecule also returned a B-cell proliferation (U/µg), Experiment 2 in the assay with CD40 on B cells of 15 U/µg. Moreover, the Ka in assay [7] came out at 7.7e+07 M⁻¹; in assay [8], 7.4e+08 M⁻¹; in assay [9] it was 3e+07 M⁻¹.
